Source: PMC12990707, “Multiple novel hepatocellular carcinoma signature genes are commonly controlled by the master pluripotency factor OCT4”

B1: TK1 probe 2 (dsDNA)
DNA 1: CCTGGCAGGGTCTACGGATATTATTAGCATAGTCAGGACTTCAATTTTCTTT
DNA 2: AAAGAAAATTGAAGTCCTGACTATGCTAATAATATCCGTAGACCCTGCCAGG
B2: TK1 probe 3 (dsDNA)
DNA 1: CGGGCTAACACCTTCACACTTTATGCAGAAAGTAACAAGGAACCATTCTGAG
DNA 2: CTCAGAATGGTTCCTTGTTACTTTCTGCATAAAGTGTGAAGGTGTTAGCCCG
B3: TK1 probe 1 (dsDNA)
DNA 1: GGGACCTGGCACGCACTAGGCGCTCTGCATGCCCACAGGAGTGCTCTAGACG
DNA 2: CGTCTAGAGCACTCCTGTGGGCATGCAGAGCGCCTAGTGCGTGCCAGGTCCC

These binders were tested against OCT4 (human, UniProt Q01860 1-360) (assay: EMSA; LightShift chemiluminescent EMSA kit (Thermo 20148) per manufacturer; buffer, salt, pH and temperature not stated). Settings: protein: recombinant; label: 5' biotin on both strands; blunt.
Chain of OCT4 (Q01860 whole entry): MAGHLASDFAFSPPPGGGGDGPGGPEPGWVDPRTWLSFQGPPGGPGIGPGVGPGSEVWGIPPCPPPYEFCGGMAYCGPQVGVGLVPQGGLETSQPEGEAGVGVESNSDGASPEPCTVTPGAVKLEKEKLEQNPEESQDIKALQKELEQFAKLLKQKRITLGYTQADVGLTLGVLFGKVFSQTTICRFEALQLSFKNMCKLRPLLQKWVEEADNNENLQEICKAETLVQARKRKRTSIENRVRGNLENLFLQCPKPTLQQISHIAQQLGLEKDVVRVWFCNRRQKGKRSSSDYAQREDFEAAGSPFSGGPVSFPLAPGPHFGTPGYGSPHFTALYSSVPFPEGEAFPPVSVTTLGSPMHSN

Binding result, binds:
B1
B2
B3
